The record followed here is CN113980129A (DONGDA BIOTECHNOLOGY SUZHOU CO LTD, dated 2022).

B1: Control-3C6 (antibody, V domains shown)
VH: EVQLVQSGAEVKKPGASVKISCKASGYTFTDYNMDWVKQAPGQRLEWIGDINPHNGGPIYNQKFTGRATLTVDKSASTAYMELSSLRSEDTAVYYCARGELGHWYFDVWGQGTTVTVSS
VL: DIVLTQSPASLALSPGERATLSCRASKSVSTSGYSYIHWYQQKPGQAPRLLIYLASNLDSGVPARFSGSGSGTDFTLTISSLEEEDFATYYCQHSRDLPPTFGQGTKLEIKR
B2: 6B9 (antibody, V domains shown)
VH: EVQLVESGGGSVKPGGSLKLSCAASGFTFSNYAMSWVRQSPEKRLEWVAEISNGGSYTYYPDTVTGRFTISRDNAKNTLYLEMSSLRSEDTAMYYCVRHYDGYYGGILDFAMDYWGQGTSVTVSS
VL: DIQMTQSPSSLSASLGGKVTITCKASQDINKCIAWYQHKPGKGPRLLIHYTSTLQPGIPSRFSGSGSGRDYSFTISNLEPEDIATYYCLQYDYLHTFGGGTKLEIK
notes: Mouse hybridoma antibody purified on Protein A
B3: 10C2 (antibody, V domains shown)
VH: QVHLQQSGTELMKPGASVKISCKAPGYTFSSYWIEWVKQRPGHGLEWIGEILPGSGNTNYNEKFKGKATFTADTSSNTAYMQLSSLTSEDSAVYYCASPSSTVDYAMDYWGQGTSVTVSS
VL: DIVLTQSPASLGVSLGQRATISCRASRSVSTSGYNYMHWYQQKPGQPPKLLIFLASNLESGVPARFSGSGSGTDFTLNIHPVEEEDAATYHCQHSRELPYTFGGGTKLEIK
notes: Mouse hybridoma antibody purified on Protein A; also called 鼠源10C2
B4: 16F3 (antibody, V domains shown)
VH: QVQLQQSGAELVRPGVSVKISCKGSGDTFTDYAMHWVKQSHAKSLEWIGVISTYYGDVSYNQKFKGKATMTVDKSSSTAYMELVRLTSEDSAIYYCARGYYDYAWFAYWGQGTLVTVSA
VL: QIVLTQSPAIMSASPGEKVTMTCSASSSLNYMHWYQQKSGTSPKRWIYDTSKLASGVPARFSGSGSGTSYSLTISSMEAEDAATYYCQQWSSNPLTFGAGTKLELK
notes: as for B2
B5: 4A2 (antibody, V domains shown)
VH: QVQLQQSGGELVRPGVSVKISCKGSGYKITDYAMHWVKQSHAESLEWIGVISSYYGDTSYNQKFKGKATMTVDISSSTAYMEIARLTSEDSAIYYCAIGLWDVGYFDYWGQGTTLTVSS
VL: QIVLTQSPAIMSASPGEKVTMTCSASSSVSYMQWYQQKSGTSPKRWIYDTSKLASGVPARFSGSGSGTSYSLTISSMEAEDAATYYCQQWVSKAVTFGSGTKLEIK
notes: as for B2
B6: 1D12 (antibody, V domains shown)
VH: EVQLQQFGAELVKPGAAVKISCKASGYTFTDYNMDWVRQSHGKSLEWIGEINPNYDSTRYNQKFKGKATLTVDKSSSTAYMELRSLTSEDTAVYYCARSDYYAMDYWGQGTSVTVSS
VL: SIVMTQTPSFLLVSAGDRVTITCKASQSVSNDVAWYQQKPGQSPKLLIYYASNRFTGVPDRFTGSGFGTDFTFTISTVQTGDLAVYFCRQDYISPYTFGGGTKLEIK
notes: as for B2
B7: 14E1 (antibody, V domains shown)
VH: EVQLQQSGPVLVKPGASVKMSCKASGYTFTDYYMNWVKQSHGKSLEWIGVFNPYNGGTVYNQKFKGKATLTVDKSSSTAYMELSSLTSEDSAVYYCAREDYGSYYVVFDYWGQGTTLTVSS
VL: QIVLSQSPAILSASPGEKVTMTCRASSSVSYMHWYQQKPGSSPKPWIYATSNLASGVPARFSGSGSGTSYSLTISRVEAEDAATYYCQHWSSNPLTFGAGTKLELK
notes: as for B2
B8: 16E12 (antibody, V domains shown)
VH: QVQLQQSGAELVKPGASVKLSCKASGYTFTSYYMYWVKQRPGQGLEWIGEINPSNGGTDFNEKFKNKATLTVDKSSSTAYMQLSSLTSEDSAVYYCTREEIHYGYDKGFAYWGQGTLVTVSA
VL: NIMMTQSPSSLAVSAGEKVTMSCKSSQSVLHSSNQKNYLAWYQQKPGQSPKLLIYWASTRESGVPDRFTGSGSGTDFTLTISSIQAEDLAVYYCHQYFSLWTFGGGTKLEIK
notes: Mouse hybridoma antibody purified on Protein A; also called 鼠源16E12
B9: 18B6 (antibody, V domains shown)
VH: QVQLQQSGAELVKPGASVKLSCKASGYTFTNYYIYWMKQRPGQGLEWIGEINPSNGGTNFNEKFKSKATLTVDKSSSTAYMQLSSLTSEDSAVYFCSREEIHYGYDKGFAYWGQGTLVTVSA
VL: NIMMTQSPSYLAVSAGEKVTMSCKSSQSVLNSSNQKNYLAWYQQKPGQSPKLLIYWASIRESGVPDRFTGSGSGTDFTLTISSVQAEDLAVYFCHQYFSSWTFGGGTRLEIK
notes: as for B2
B10: 26A6 (antibody, V domains shown)
VH: QIQLVQSGPELKKPGETVKISCKASGYTFTNYGMNWVKQAPGKGLKWMGWINTNTGETTYAEEFKGRFAFSLEASVSTAHLQINNLKNEDTATYFCAKEDFYGMDYWGQGSSVTVSS
VL: NIVMTQTPKFLLVSAGDRVTMTCKASQSVSNDVVWYQQKPGQSPKLLIYYASNRYTGVPDRFIGSGYGTEFTFTISTVQAEDLAVYFCQQDYSFPYTFGGGTKLEIK
notes: as for B2
B11: 14F6 (antibody, V domains shown)
VH: EVKLEESGGGLVQPGGSMKLSCVASGFTFSKYWMNWVRQSPEKGLEWVAEIRLKSDNYATQYAESVKGRFTMSRDDSKSSVYLQMKNLRAEDSGIYYCTKEGYDGYAMDYWGQGTSVTVSS
VL: RIVMTQTPKFLLVSAGDRVTITCKASQNINNDVVWYQQKPGQSPKLLIYYASNRYTGVPDRFTGSGYGTDFTFTISTVQAEDLAVYFCQQDYISPWTFGGGTKLEIK
notes: as for B2
B12: hu16E12 E61Q N65G (antibody, V domains shown)
VH: QVQLVQSGAEVKKPGASVKVSCKASGYTFTSYYMYWVRQAPGQGLEWIGEINPSNGGTDFNQKFKGRVTMTVDTSISTAYMELSRLRSDDTAVYYCTREEIHYGYDKGFAYWGQGTLVTVSS
VL: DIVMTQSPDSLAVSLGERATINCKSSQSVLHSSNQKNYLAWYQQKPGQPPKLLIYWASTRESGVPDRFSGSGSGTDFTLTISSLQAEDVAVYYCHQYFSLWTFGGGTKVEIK
notes: CDR mutant of hu16E12 (IgG4); placed on VH (CDR2, probably Kabat) by inference
B13: hu16E12 L94H (antibody, V domains shown)
VH: QVQLVQSGAEVKKPGASVKVSCKASGYTFTSYYMYWVRQAPGQGLEWIGEINPSNGGTDFNEKFKNRVTMTVDTSISTAYMELSRLRSDDTAVYYCTREEIHYGYDKGFAYWGQGTLVTVSS
VL: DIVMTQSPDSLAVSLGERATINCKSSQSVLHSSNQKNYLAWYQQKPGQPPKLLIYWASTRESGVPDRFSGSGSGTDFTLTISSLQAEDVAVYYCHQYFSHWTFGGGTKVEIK
B14: hu16E12 K64Q N65G (antibody, V domains shown)
VH: QVQLVQSGAEVKKPGASVKVSCKASGYTFTSYYMYWVRQAPGQGLEWIGEINPSNGGTDFNEKFQGRVTMTVDTSISTAYMELSRLRSDDTAVYYCTREEIHYGYDKGFAYWGQGTLVTVSS
VL: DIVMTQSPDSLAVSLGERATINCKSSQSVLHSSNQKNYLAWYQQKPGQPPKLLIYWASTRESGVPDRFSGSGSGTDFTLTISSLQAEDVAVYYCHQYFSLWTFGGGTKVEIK
notes: CDR mutant of hu16E12 (IgG4); placed on VH (CDR2, probably Kabat numbering) by inference
B15: hu16E12 N54Q (antibody, V domains shown)
VH: QVQLVQSGAEVKKPGASVKVSCKASGYTFTSYYMYWVRQAPGQGLEWIGEINPSQGGTDFNEKFKNRVTMTVDTSISTAYMELSRLRSDDTAVYYCTREEIHYGYDKGFAYWGQGTLVTVSS
VL: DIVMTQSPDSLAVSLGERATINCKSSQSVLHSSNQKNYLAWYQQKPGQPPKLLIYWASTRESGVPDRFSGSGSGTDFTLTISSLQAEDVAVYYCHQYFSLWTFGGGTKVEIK
notes: as for B12
B16: hu16E12 G55V (antibody, V domains shown)
VH: QVQLVQSGAEVKKPGASVKVSCKASGYTFTSYYMYWVRQAPGQGLEWIGEINPSNVGTDFNEKFKNRVTMTVDTSISTAYMELSRLRSDDTAVYYCTREEIHYGYDKGFAYWGQGTLVTVSS
VL: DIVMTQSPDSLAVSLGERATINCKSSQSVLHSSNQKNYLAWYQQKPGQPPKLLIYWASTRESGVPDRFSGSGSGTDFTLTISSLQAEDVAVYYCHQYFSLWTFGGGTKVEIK
notes: as for B12
B17: hu16E12 G55A (antibody, V domains shown)
VH: QVQLVQSGAEVKKPGASVKVSCKASGYTFTSYYMYWVRQAPGQGLEWIGEINPSNAGTDFNEKFKNRVTMTVDTSISTAYMELSRLRSDDTAVYYCTREEIHYGYDKGFAYWGQGTLVTVSS
VL: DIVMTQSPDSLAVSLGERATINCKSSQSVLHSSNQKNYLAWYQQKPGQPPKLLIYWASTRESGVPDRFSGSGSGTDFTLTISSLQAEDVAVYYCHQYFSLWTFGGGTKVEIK
notes: as for B12
B18: hu16E12 N65G (antibody, V domains shown)
VH: QVQLVQSGAEVKKPGASVKVSCKASGYTFTSYYMYWVRQAPGQGLEWIGEINPSNGGTDFNEKFKGRVTMTVDTSISTAYMELSRLRSDDTAVYYCTREEIHYGYDKGFAYWGQGTLVTVSS
VL: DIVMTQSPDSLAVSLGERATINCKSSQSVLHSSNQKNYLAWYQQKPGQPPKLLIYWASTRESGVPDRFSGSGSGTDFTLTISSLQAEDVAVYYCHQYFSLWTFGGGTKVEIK
notes: as for B12
B19: hu16E12 N60A N65G (antibody, V domains shown)
VH: QVQLVQSGAEVKKPGASVKVSCKASGYTFTSYYMYWVRQAPGQGLEWIGEINPSNGGTDFAEKFKGRVTMTVDTSISTAYMELSRLRSDDTAVYYCTREEIHYGYDKGFAYWGQGTLVTVSS
VL: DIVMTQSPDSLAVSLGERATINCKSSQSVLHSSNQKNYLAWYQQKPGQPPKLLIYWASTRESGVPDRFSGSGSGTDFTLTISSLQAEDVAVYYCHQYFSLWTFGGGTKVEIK
notes: as for B12
B20: hu16E12 N54S (antibody, V domains shown)
VH: QVQLVQSGAEVKKPGASVKVSCKASGYTFTSYYMYWVRQAPGQGLEWIGEINPSSGGTDFNEKFKNRVTMTVDTSISTAYMELSRLRSDDTAVYYCTREEIHYGYDKGFAYWGQGTLVTVSS
VL: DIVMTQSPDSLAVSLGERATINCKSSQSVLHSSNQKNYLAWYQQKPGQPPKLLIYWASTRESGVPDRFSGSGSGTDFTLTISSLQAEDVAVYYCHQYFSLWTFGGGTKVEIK
notes: as for B12

The target in the first assay is T1, 重组人IL-11 (recombinant human interleukin-11) (human, UniProt P20809 22-199).
T1 construct: Called recombinant human IL-11 as immunogen; the assays say only IL-11; also called IL-11抗原; IL-11-Biotin
T1 sequence (looked up): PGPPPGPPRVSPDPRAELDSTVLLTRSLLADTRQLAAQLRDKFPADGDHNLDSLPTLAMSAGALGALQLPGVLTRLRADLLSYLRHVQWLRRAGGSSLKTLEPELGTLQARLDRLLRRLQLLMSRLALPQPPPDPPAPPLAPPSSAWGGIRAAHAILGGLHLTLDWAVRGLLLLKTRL
Kind of assay: FACS, blocking of IL-11-biotin binding to 293T-IL-11Rα/gp130 cells. For orientation: A flow cytometer gives signals particle by particle.
The term IC50 denotes the concentration at which inhibition is half-maximal. Regarding B1, the IC50 came to 4.19 µg/mL.

For the next assay, the target named is T1, 重组人IL-11 (recombinant human …). Description: ELISA, IL-11 coated on plate.
For orientation: EC50 means the concentration at which the effect is half-maximal. In the case of B1, the concentration giving a half-maximal response (EC50) is 22.5 µg/mL.

The target is the same in the next assay. Kind of assay: ELISA, IL-11 coated on plate. The source holds these as a separate data set.
In the case of B2, the binding result was “binds”.

With B3, the binding result is given as “binds”.

For B4, the binding result is on record as “binds”.

B5: the binding result is listed as “binds”.

For the molecule B6, the binding result is on record as “binds”.

For B7, the binding result is reported as “binds”.

Regarding B8, the binding result was “binds”.

With B9, the binding result is recorded as “binds”.

Consider B10, for which the binding result was “binds”.

For B11, the binding result is listed as “binds”.

Another assay shares this target. Description: SPR (Biacore), antibody captured on anti-human IgG CM5 chip, IL-11 as analyte. On the technique in general: SPR reads the build-up and loss of mass on a sensor chip optically.
What is called Kd is the free concentration of one partner at which half of the binding sites on the other are occupied at equilibrium, for simple one-to-one binding. What is called koff is the first-order rate constant of dissociation. By kon is commonly meant a measure of how fast the partners come together. As to B12, the Kd is 0.0363 nM, the koff worked out at 8.54e-05 s⁻¹ and the kon came out at 2.35e+06 M⁻¹ s⁻¹.

B13: the Kd came out at 0.00187 nM, the off-rate (koff) was 3.91e-06 s⁻¹ and the on-rate constant (kon) came out at 2.09e+06 M⁻¹ s⁻¹.

For B14, the equilibrium dissociation constant (Kd) amounted to 0.0157 nM, the off-rate (koff) stood at 5.76e-05 s⁻¹ and the on-rate (kon) came out at 3.68e+06 M⁻¹ s⁻¹.

Take B15: the dissociation constant Kd was 0.0363 nM, the off-rate (koff) stood at 0.000101 s⁻¹ and the association rate constant (kon) is 2.78e+06 M⁻¹ s⁻¹.

With B16, the Kd was 0.00387 nM, the koff is 9.32e-06 s⁻¹ and the kon worked out at 2.41e+06 M⁻¹ s⁻¹.

Regarding B17, the dissociation constant Kd came out at 0.012 nM, the dissociation rate constant (koff) turned out to be 3.56e-05 s⁻¹ and the kon is 2.96e+06 M⁻¹ s⁻¹.

Turning to B18, the dissociation constant (Kd) is 0.0189 nM, the off-rate (koff) is 5.25e-05 s⁻¹ and the on-rate constant (kon) stood at 2.78e+06 M⁻¹ s⁻¹.

With B19, the dissociation constant Kd was found to be 0.0268 nM, the koff was 7.51e-05 s⁻¹ and the association rate constant (kon) was determined as 2.81e+06 M⁻¹ s⁻¹.

In the case of B20, the Kd was 0.0245 nM, the off-rate constant (koff) turned out to be 7e-05 s⁻¹ and the on-rate (kon) was determined as 2.86e+06 M⁻¹ s⁻¹.

For another assay the target is unchanged. Kind of assay: cell-based or functional assay.
For B1, the “IC50, STAT3 luciferase reporter in DLD1-IL-11R-pSTAT3-Luc cells” value came out at 178 ng/mL.
